# Test results taken from publication PMC7092852 (Biochemical and Biophysical Research Communications, 2005).
# Biological target: the molecule itself
# Assay: SEC
protein,measurement,value
"2-helix protein (native single chain NHR + CHR of syncytin, amino acids 349-445) (domain or fragment) not shown",stoichiometry N,3
